{
  "source": "IntAct's records for PubMed 22124327",
  "target": "otub1_human OTUB1 (UniProt Q96FW1)",
  "sequence (Q96FW1 whole entry)": "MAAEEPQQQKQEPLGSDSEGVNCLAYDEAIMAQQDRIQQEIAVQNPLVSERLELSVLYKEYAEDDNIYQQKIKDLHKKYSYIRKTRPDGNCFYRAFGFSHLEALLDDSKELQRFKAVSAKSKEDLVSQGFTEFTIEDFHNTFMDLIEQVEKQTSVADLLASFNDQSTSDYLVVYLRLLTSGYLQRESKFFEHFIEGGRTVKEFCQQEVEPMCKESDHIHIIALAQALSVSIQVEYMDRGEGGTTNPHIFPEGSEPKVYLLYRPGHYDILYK",
  "data": [
    {"substance": "Ubiquitin-conjugating enzyme E2 D1 (Homo sapiens), P51668 D87A", "values": [
      {"measurement": "effect of a mutation on the interaction", "result": "disrupting interaction"}
    ]}
  ]
}
